Target: T1, Claudin18.2 on 人胃癌NUGC4细胞 (human, UniProt P56856-2 1-261)
T1 construct: whole, on cells
T1 sequence (looked up): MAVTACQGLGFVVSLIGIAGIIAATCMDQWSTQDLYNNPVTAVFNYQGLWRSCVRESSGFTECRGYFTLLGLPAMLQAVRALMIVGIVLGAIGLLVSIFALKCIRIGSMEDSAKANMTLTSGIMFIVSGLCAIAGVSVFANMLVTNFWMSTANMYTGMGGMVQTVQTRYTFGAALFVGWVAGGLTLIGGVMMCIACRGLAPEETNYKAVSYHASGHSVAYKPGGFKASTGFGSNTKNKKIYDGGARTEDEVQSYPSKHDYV
Assay: flow cytometry on NUGC4 cells, anti-mouse IgG Fc-FITC

B1: 抗Claudin18.2小鼠单克隆抗体m1D6 (antibody, V domains shown)
VH: QVQLQQPGPELVMPGASVKLSCKASGYTFTSYRMHWVKQRPGQGLEWIGEIDPSNSYTNYNQNFRGRSTLTVDKSSSTAYMQLSSLTSGDSAVYYCARLGRGNTLGYWGQGTSVTVSS
VL: DIVMTQSPSSLTVTAGEKVTVGCKSSQSLLNSGNQKNYLTWYQQKPGQPPKLLIYWASTRESGVPDRFTGSGSGTDFTLTIRSVQAEDLAVYYCQNGYSYPFTFGSGTKLEIKR
notes: Both printed entries appear to start with a leader peptide ahead of the variable region; For in vivo imaging the antibody was labelled with Dylight680
B1: binds.

— CN117567625A (INST MED BIOTECHNOLOGY CAMS, dated 2024)
